Columns and labels:
[1] = target: T1, protein encoded by ph01207 (Homo sapiens, UniProt O60241, DEL308-362); assay: Changes in intracellular Ca2+ concentration in HA-ph01207#10-6 cell strain (CHO-K1 stably expressing ph01207); type: cell-based; conditions: peptide at final concentration 1 nM
T1 construct: expressed in transfected cells; host or cells: CHO-K1 (HA-ph01207#10-6, FERM BP-10101), T8HA-attR/pCINeo
T1 sequence (O60241 with tags, fused parts or gaps DEL308-362): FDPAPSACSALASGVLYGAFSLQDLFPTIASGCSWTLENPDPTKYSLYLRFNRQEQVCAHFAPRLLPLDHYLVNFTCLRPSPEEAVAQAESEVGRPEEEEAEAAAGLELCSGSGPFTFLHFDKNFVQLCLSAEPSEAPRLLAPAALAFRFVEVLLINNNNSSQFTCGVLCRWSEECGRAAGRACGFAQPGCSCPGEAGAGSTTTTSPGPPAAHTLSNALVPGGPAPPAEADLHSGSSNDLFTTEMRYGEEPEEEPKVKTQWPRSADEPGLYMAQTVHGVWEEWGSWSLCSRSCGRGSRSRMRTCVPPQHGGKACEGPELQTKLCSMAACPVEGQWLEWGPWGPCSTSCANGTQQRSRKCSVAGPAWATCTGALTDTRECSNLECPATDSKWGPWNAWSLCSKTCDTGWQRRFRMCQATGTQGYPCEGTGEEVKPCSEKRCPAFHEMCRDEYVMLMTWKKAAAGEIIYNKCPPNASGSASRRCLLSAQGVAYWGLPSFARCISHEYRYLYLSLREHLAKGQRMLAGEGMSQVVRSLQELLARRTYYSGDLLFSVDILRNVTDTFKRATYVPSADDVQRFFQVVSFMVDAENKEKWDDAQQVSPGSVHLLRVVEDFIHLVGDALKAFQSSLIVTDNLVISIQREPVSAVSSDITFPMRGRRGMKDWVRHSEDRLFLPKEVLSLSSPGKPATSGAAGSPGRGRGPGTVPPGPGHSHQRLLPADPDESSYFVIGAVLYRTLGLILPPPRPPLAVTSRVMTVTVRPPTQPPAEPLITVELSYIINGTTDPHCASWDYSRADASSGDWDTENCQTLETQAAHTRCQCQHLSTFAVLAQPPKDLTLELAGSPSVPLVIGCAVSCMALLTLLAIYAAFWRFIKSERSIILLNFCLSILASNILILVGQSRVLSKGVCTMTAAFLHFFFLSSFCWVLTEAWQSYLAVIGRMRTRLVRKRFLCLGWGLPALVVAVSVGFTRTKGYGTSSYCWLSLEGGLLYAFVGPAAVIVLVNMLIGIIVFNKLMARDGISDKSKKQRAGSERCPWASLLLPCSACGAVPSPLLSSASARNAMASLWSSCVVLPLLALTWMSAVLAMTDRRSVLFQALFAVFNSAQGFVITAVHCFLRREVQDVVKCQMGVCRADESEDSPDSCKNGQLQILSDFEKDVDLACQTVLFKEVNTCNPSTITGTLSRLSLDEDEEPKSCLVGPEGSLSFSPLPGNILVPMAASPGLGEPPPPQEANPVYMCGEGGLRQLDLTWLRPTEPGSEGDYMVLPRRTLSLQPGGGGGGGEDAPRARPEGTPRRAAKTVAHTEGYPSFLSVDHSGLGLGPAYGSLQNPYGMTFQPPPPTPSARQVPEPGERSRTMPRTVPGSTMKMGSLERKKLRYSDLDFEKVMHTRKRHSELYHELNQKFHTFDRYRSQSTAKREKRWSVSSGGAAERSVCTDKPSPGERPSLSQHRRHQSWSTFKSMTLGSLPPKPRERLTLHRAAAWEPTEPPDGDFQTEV
Description: Changes in the intracellular calcium (Ca^2+) concentration induced by CCK-8S (SEQ ID NO: 14), CCK-8NS, or CCK-4 were measured using the cell strains expressing ph01207 prepared in Example 2. The cell strains prepared in Example 2 were eight strains that expressed the protein encoded by ph01207 as FLAG-tag fusion proteins and four strains that expressed the protein encoded by ph01207 as HA-tag fusion proteins. Of these, the HA-ph01207#10-6 cell strain, a strain obtained by cloning one of the cell strains that stably expressed the protein encoded by ph01207 as HA-tag fusion proteins, was used in this example. CCK-8NS was a CCK octapeptide having the same amino acid sequence as that of CCK-8S (SEQ ID NO: 14), but a region from the C terminus to the seventh tyrosine residue was not sulfated. CCK-4 was a tetrapeptide comprising residues from the C terminus to the fourth amino acid of CCK-8S (SEQ ID NO: 14).
The specific method for measuring changes in the intracellular Ca^2+ concentration in the HA-ph01207#10-6 cell strain induced by CCK-8S (SEQ ID NO: 14) and the results are described below. The HA-ph01207#10-6 cell strain was seeded on a 96-well plate (a plate with a black wall and a transparent bottom) at a cell count of 2×10^4/100 μL medium/well and cultured at 37° C. in the presence of 5% CO2. As a medium, DMEM/F12 (Gibco) containing 10% fetal calf serum (Moregate) was used. On the following day, 50 μL of the medium was removed from each well, 50 μL of a loading buffer was added to each well, and the mixture was reacted at room temperature for 1.5 h, so that a fluorescent dye contained in the loading buffer should be taken up into the cell. The loading buffer was prepared by dissolving component A of the FLIPR Calcium 3 Assay Kit (Molecular Device) in a solution obtained by adding 0.1 mL of 500 mM probenecid (Sigma) to 9.9 mL of component B. After reaction, changes over time in the fluorescence intensity in each well after addition of CCK-8S (Peptide Institute, Inc.) were measured using the FLEX station (Molecular Device). Furthermore, similar measurement was performed for CCK-8NS (Peptide Institute, Inc.) and CCK-4 (Peptide Institute, Inc.). 0.52 mg of CCK-8S (SEQ ID NO: 14) was dissolved in 4.5 mL of 1% NaHCO3 (Wako) to prepare a solution having 0.1 mM concentration. 0.53 mg of CCK-8NS was dissolved in 0.50 mL of dimethyl sulfoxide (DMSO, Sigma), and then 4.50 mL of redistilled water H2O was added to prepare a solution having 0.1 mM concentration. 0.54 mg of CCK-4 was dissolved in 0.46 mL of DMSO, 4.09 mL of redistilled water was added to prepare a solution having 0.2 mM concentration. […]

CHO-K1 cell strain = assay: Changes in intracellular Ca2+ concentration in CHO-K1 host cell not transfected (negative control); type: cell-based, Chinese hamster; conditions: CHO-K1 not transfected; peptide 1 nM (Example 5)
Description: The specific method for measuring changes in the intracellular Ca^2+ concentration in the HA-ph01207#10-6 cell strain induced by CCK-8S (SEQ ID NO: 14) and the results are described below. The HA-ph01207#10-6 cell strain was seeded on a 96-well plate (a plate with a black wall and a transparent bottom) at a cell count of 2×10^4/100 μL medium/well and cultured at 37° C. in the presence of 5% CO2. As a medium, DMEM/F12 (Gibco) containing 10% fetal calf serum (Moregate) was used. On the following day, 50 μL of the medium was removed from each well, 50 μL of a loading buffer was added to each well, and the mixture was reacted at room temperature for 1.5 h, so that a fluorescent dye contained in the loading buffer should be taken up into the cell. The loading buffer was prepared by dissolving component A of the FLIPR Calcium 3 Assay Kit (Molecular Device) in a solution obtained by adding 0.1 mL of 500 mM probenecid (Sigma) to 9.9 mL of component B. After reaction, changes over time in the fluorescence intensity in each well after addition of CCK-8S (Peptide Institute, Inc.) were measured using the FLEX station (Molecular Device). Furthermore, similar measurement was performed for CCK-8NS (Peptide Institute, Inc.) and CCK-4 (Peptide Institute, Inc.). 0.52 mg of CCK-8S (SEQ ID NO: 14) was dissolved in 4.5 mL of 1% NaHCO3 (Wako) to prepare a solution having 0.1 mM concentration. 0.53 mg of CCK-8NS was dissolved in 0.50 mL of dimethyl sulfoxide (DMSO, Sigma), and then 4.50 mL of redistilled water H2O was added to prepare a solution having 0.1 mM concentration. 0.54 mg of CCK-4 was dissolved in 0.46 mL of DMSO, 4.09 mL of redistilled water was added to prepare a solution having 0.2 mM concentration. CCK-8S (SEQ ID NO: 14), CCK-8NS, and CCK-4 were diluted in phosphate-buffered physiological saline (PBS) to prepare 5 nM solutions, and 25 μL each was added (final concentration 1 nM) to perform measurement. As a positive control for including an increase in the intracellular Ca^2+ concentration, A23187 (Calbiochem) was used at a final concentration of 10 μM. As a negative control, the CHO-K1 cell strain used to prepare the HA-ph01207#10-6 cell strain as a host was used. Since the CHO-K1 cell strain was not transfected with the ph01207-expressing vector, the ph01207 gene product was not expressed.
Changes in the intracellular calcium (Ca^2+) concentration induced by CCK-8S were measured by a method similar to the method described in Example 5 using the 7tmHR stably-expressing strain and the hk01941 stably-expressing strain prepared in Example 7. As a control, a host cell not transfected with the 7tmHR-expressing vector or the hk01941-expressing vector was also used.
Cells were seeded in a 96-well plate (a plate with a black wall and a transparent bottom) at a cell count of 3×10^4/100 μL of medium/well and cultured overnight at 37° C. in a 5% CO2 incubator. On the following day, 50 μL of the medium was removed from each well, […] of a loading buffer was added to each well, and the mixture was reacted at room temperature for 1 h, so that a fluorescent dye contained in the loading buffer was taken up into the cell. The loading buffer was prepared by a method similar to the method described in Example 5. After reaction, changes over time in the fluorescence intensity in each well after addition of CCK-8S were measured using the FLEX station (Molecular Device). CCK-8S was used at a final concentration of 10 pM to 1 μM. Furthermore, as a positive control of the assay, A23187 was used at a final concentration of 20 μM.
Cells were seeded in a 96-well plate (a plate with a black wall and a transparent bottom) at a cell count of 3×10^4/100 μL of medium/well and cultured overnight at 37° C. in a 5% CO2 incubator. […]

| Substance | Change in intracellular Ca2+ concentration (fluorescence intensity) [1] | Change in intracellular Ca2+ concentration (fluorescence intensity) (CHO-K1 cell strain) |
| --- | --- | --- |
| CCK-4: tetrapeptide comprising residues from the C terminus to the fourth amino acid of CCK-8S | did not increase | not increased |
| CCK-8 nonsulfated form [CCK-8NS] | did not increase | not increased |

Source: patent US20100029702A1, “Method For Identification of Compound Having Anti-Anxiety Effect” (priority 2006, published 2010)
